Laboratory results as given in US20220040297A1 (Chugai, published 2022).

target: CD3ε homodimer protein (human, UniProt P07766 23-126, limits assumed); assay: SPR, immobilized CD3ε homodimer;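 further: biacore T200 surface plasmon resonance at 25 °C, antibody variants flowed as analytes over amine-coupled CD3ε homodimer on a CM4 chip, variant binding amount divided by that of GLS3000 antibody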
Sequence (P07766 23-126 limits assumed): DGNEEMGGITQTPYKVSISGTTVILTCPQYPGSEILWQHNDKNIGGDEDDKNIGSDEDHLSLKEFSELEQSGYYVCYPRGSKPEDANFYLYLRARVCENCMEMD

| Binder | ratio of amounts bound (vs GLS3000) |
| --- | --- |
| GLS3000 R24Q (antibody, name in Kabat numbering, V domains shown, one-arm format as m2) VH: QVQLVESGGGVVQPGRSLRLSCAASGFTFSNAWMHWVRQAPGKGLEWVAQIKAKSNNYATYYAESVKGRFTISRDDSKNSLYLQMNSLKTEDTAVYYCRYVHYGAYYGVDAWGQGTTVTVSS VL: DIVMTQSPLSLPVTPGEPASISCQSSQSLVHSNRNTYLHWYQQKPGQAPRLLIYKVSNRFSGVPDRFSGSGSGTDFTLKISRVEAEDVGVYYCGQGTQVPYTFGQGTKLEIK | 0.9 |
| GLS3000 R54A (antibody, name in Kabat numbering, V domains shown, one-arm format as m2) VH: QVQLVESGGGVVQPGRSLRLSCAASGFTFSNAWMHWVRQAPGKGLEWVAQIKAKSNNYATYYAESVKGRFTISRDDSKNSLYLQMNSLKTEDTAVYYCRYVHYGAYYGVDAWGQGTTVTVSS VL: DIVMTQSPLSLPVTPGEPASISCRSSQSLVHSNRNTYLHWYQQKPGQAPRLLIYKVSNAFSGVPDRFSGSGSGTDFTLKISRVEAEDVGVYYCGQGTQVPYTFGQGTKLEIK | 0.69 |
| GLS3000 R29S (antibody, name in Kabat numbering, V domains shown, one-arm format as m2) VH: QVQLVESGGGVVQPGRSLRLSCAASGFTFSNAWMHWVRQAPGKGLEWVAQIKAKSNNYATYYAESVKGRFTISRDDSKNSLYLQMNSLKTEDTAVYYCRYVHYGAYYGVDAWGQGTTVTVSS VL: DIVMTQSPLSLPVTPGEPASISCRSSQSLVHSNSNTYLHWYQQKPGQAPRLLIYKVSNRFSGVPDRFSGSGSGTDFTLKISRVEAEDVGVYYCGQGTQVPYTFGQGTKLEIK | 0.68 |
| GLS3000 R24S (antibody, name in Kabat numbering, V domains shown, one-arm format as m2) VH: QVQLVESGGGVVQPGRSLRLSCAASGFTFSNAWMHWVRQAPGKGLEWVAQIKAKSNNYATYYAESVKGRFTISRDDSKNSLYLQMNSLKTEDTAVYYCRYVHYGAYYGVDAWGQGTTVTVSS VL: DIVMTQSPLSLPVTPGEPASISCSSSQSLVHSNRNTYLHWYQQKPGQAPRLLIYKVSNRFSGVPDRFSGSGSGTDFTLKISRVEAEDVGVYYCGQGTQVPYTFGQGTKLEIK | 0.89 |
| GLS3000 R24T (antibody, name in Kabat numbering, V domains shown, one-arm format as m2) VH: QVQLVESGGGVVQPGRSLRLSCAASGFTFSNAWMHWVRQAPGKGLEWVAQIKAKSNNYATYYAESVKGRFTISRDDSKNSLYLQMNSLKTEDTAVYYCRYVHYGAYYGVDAWGQGTTVTVSS VL: DIVMTQSPLSLPVTPGEPASISCTSSQSLVHSNRNTYLHWYQQKPGQAPRLLIYKVSNRFSGVPDRFSGSGSGTDFTLKISRVEAEDVGVYYCGQGTQVPYTFGQGTKLEIK | 0.88 |
| GLS3000 R45E (antibody, name in Kabat numbering, V domains shown, one-arm format as m2) VH: QVQLVESGGGVVQPGRSLRLSCAASGFTFSNAWMHWVRQAPGKGLEWVAQIKAKSNNYATYYAESVKGRFTISRDDSKNSLYLQMNSLKTEDTAVYYCRYVHYGAYYGVDAWGQGTTVTVSS VL: DIVMTQSPLSLPVTPGEPASISCRSSQSLVHSNRNTYLHWYQQKPGQAPELLIYKVSNRFSGVPDRFSGSGSGTDFTLKISRVEAEDVGVYYCGQGTQVPYTFGQGTKLEIK | 0.75 |
| GLS3000 R29Y (antibody, name in Kabat numbering, V domains shown, one-arm format as m2) VH: QVQLVESGGGVVQPGRSLRLSCAASGFTFSNAWMHWVRQAPGKGLEWVAQIKAKSNNYATYYAESVKGRFTISRDDSKNSLYLQMNSLKTEDTAVYYCRYVHYGAYYGVDAWGQGTTVTVSS VL: DIVMTQSPLSLPVTPGEPASISCRSSQSLVHSNYNTYLHWYQQKPGQAPRLLIYKVSNRFSGVPDRFSGSGSGTDFTLKISRVEAEDVGVYYCGQGTQVPYTFGQGTKLEIK | 0.69 |
| GLS3000 R54G (antibody, name in Kabat numbering, V domains shown, one-arm format as m2) VH: QVQLVESGGGVVQPGRSLRLSCAASGFTFSNAWMHWVRQAPGKGLEWVAQIKAKSNNYATYYAESVKGRFTISRDDSKNSLYLQMNSLKTEDTAVYYCRYVHYGAYYGVDAWGQGTTVTVSS VL: DIVMTQSPLSLPVTPGEPASISCRSSQSLVHSNRNTYLHWYQQKPGQAPRLLIYKVSNGFSGVPDRFSGSGSGTDFTLKISRVEAEDVGVYYCGQGTQVPYTFGQGTKLEIK | 0.67 |
| GLS3000 R29I (antibody, name in Kabat numbering, V domains shown, one-arm format as m2) VH: QVQLVESGGGVVQPGRSLRLSCAASGFTFSNAWMHWVRQAPGKGLEWVAQIKAKSNNYATYYAESVKGRFTISRDDSKNSLYLQMNSLKTEDTAVYYCRYVHYGAYYGVDAWGQGTTVTVSS VL: DIVMTQSPLSLPVTPGEPASISCRSSQSLVHSNINTYLHWYQQKPGQAPRLLIYKVSNRFSGVPDRFSGSGSGTDFTLKISRVEAEDVGVYYCGQGTQVPYTFGQGTKLEIK | 0.37 |
| GLS3000 R54E (antibody, name in Kabat numbering, V domains shown, one-arm format as m2) VH: QVQLVESGGGVVQPGRSLRLSCAASGFTFSNAWMHWVRQAPGKGLEWVAQIKAKSNNYATYYAESVKGRFTISRDDSKNSLYLQMNSLKTEDTAVYYCRYVHYGAYYGVDAWGQGTTVTVSS VL: DIVMTQSPLSLPVTPGEPASISCRSSQSLVHSNRNTYLHWYQQKPGQAPRLLIYKVSNEFSGVPDRFSGSGSGTDFTLKISRVEAEDVGVYYCGQGTQVPYTFGQGTKLEIK | 0.58 |
| GLS3000 R29A (antibody, name in Kabat numbering, V domains shown, one-arm format as m2) VH: QVQLVESGGGVVQPGRSLRLSCAASGFTFSNAWMHWVRQAPGKGLEWVAQIKAKSNNYATYYAESVKGRFTISRDDSKNSLYLQMNSLKTEDTAVYYCRYVHYGAYYGVDAWGQGTTVTVSS VL: DIVMTQSPLSLPVTPGEPASISCRSSQSLVHSNANTYLHWYQQKPGQAPRLLIYKVSNRFSGVPDRFSGSGSGTDFTLKISRVEAEDVGVYYCGQGTQVPYTFGQGTKLEIK | 0.63 |
| GLS3000 R29P (antibody, name in Kabat numbering, V domains shown, one-arm format as m2) VH: QVQLVESGGGVVQPGRSLRLSCAASGFTFSNAWMHWVRQAPGKGLEWVAQIKAKSNNYATYYAESVKGRFTISRDDSKNSLYLQMNSLKTEDTAVYYCRYVHYGAYYGVDAWGQGTTVTVSS VL: DIVMTQSPLSLPVTPGEPASISCRSSQSLVHSNPNTYLHWYQQKPGQAPRLLIYKVSNRFSGVPDRFSGSGSGTDFTLKISRVEAEDVGVYYCGQGTQVPYTFGQGTKLEIK | 0.31 |
| GLS3000 R29L (antibody, name in Kabat numbering, V domains shown, one-arm format as m2) VH: QVQLVESGGGVVQPGRSLRLSCAASGFTFSNAWMHWVRQAPGKGLEWVAQIKAKSNNYATYYAESVKGRFTISRDDSKNSLYLQMNSLKTEDTAVYYCRYVHYGAYYGVDAWGQGTTVTVSS VL: DIVMTQSPLSLPVTPGEPASISCRSSQSLVHSNLNTYLHWYQQKPGQAPRLLIYKVSNRFSGVPDRFSGSGSGTDFTLKISRVEAEDVGVYYCGQGTQVPYTFGQGTKLEIK | 0.56 |
| GLS3000 R29T (antibody, name in Kabat numbering, V domains shown, one-arm format as m2) VH: QVQLVESGGGVVQPGRSLRLSCAASGFTFSNAWMHWVRQAPGKGLEWVAQIKAKSNNYATYYAESVKGRFTISRDDSKNSLYLQMNSLKTEDTAVYYCRYVHYGAYYGVDAWGQGTTVTVSS VL: DIVMTQSPLSLPVTPGEPASISCRSSQSLVHSNTNTYLHWYQQKPGQAPRLLIYKVSNRFSGVPDRFSGSGSGTDFTLKISRVEAEDVGVYYCGQGTQVPYTFGQGTKLEIK | 0.63 |
| GLS3000 R24Y (antibody, name in Kabat numbering, V domains shown, one-arm format as m2) VH: QVQLVESGGGVVQPGRSLRLSCAASGFTFSNAWMHWVRQAPGKGLEWVAQIKAKSNNYATYYAESVKGRFTISRDDSKNSLYLQMNSLKTEDTAVYYCRYVHYGAYYGVDAWGQGTTVTVSS VL: DIVMTQSPLSLPVTPGEPASISCYSSQSLVHSNRNTYLHWYQQKPGQAPRLLIYKVSNRFSGVPDRFSGSGSGTDFTLKISRVEAEDVGVYYCGQGTQVPYTFGQGTKLEIK | 0.87 |
| GLS3000 R54D (antibody, name in Kabat numbering, V domains shown, one-arm format as m2) VH: QVQLVESGGGVVQPGRSLRLSCAASGFTFSNAWMHWVRQAPGKGLEWVAQIKAKSNNYATYYAESVKGRFTISRDDSKNSLYLQMNSLKTEDTAVYYCRYVHYGAYYGVDAWGQGTTVTVSS VL: DIVMTQSPLSLPVTPGEPASISCRSSQSLVHSNRNTYLHWYQQKPGQAPRLLIYKVSNDFSGVPDRFSGSGSGTDFTLKISRVEAEDVGVYYCGQGTQVPYTFGQGTKLEIK | 0.36 |
| GLS3000 R29V (antibody, name in Kabat numbering, V domains shown, one-arm format as m2) VH: QVQLVESGGGVVQPGRSLRLSCAASGFTFSNAWMHWVRQAPGKGLEWVAQIKAKSNNYATYYAESVKGRFTISRDDSKNSLYLQMNSLKTEDTAVYYCRYVHYGAYYGVDAWGQGTTVTVSS VL: DIVMTQSPLSLPVTPGEPASISCRSSQSLVHSNVNTYLHWYQQKPGQAPRLLIYKVSNRFSGVPDRFSGSGSGTDFTLKISRVEAEDVGVYYCGQGTQVPYTFGQGTKLEIK | 0.34 |
| GLS3000 R29D (antibody, name in Kabat numbering, V domains shown, one-arm format as m2) VH: QVQLVESGGGVVQPGRSLRLSCAASGFTFSNAWMHWVRQAPGKGLEWVAQIKAKSNNYATYYAESVKGRFTISRDDSKNSLYLQMNSLKTEDTAVYYCRYVHYGAYYGVDAWGQGTTVTVSS VL: DIVMTQSPLSLPVTPGEPASISCRSSQSLVHSNDNTYLHWYQQKPGQAPRLLIYKVSNRFSGVPDRFSGSGSGTDFTLKISRVEAEDVGVYYCGQGTQVPYTFGQGTKLEIK | 0.41 |
| GLS3000 R45Q (antibody, name in Kabat numbering, V domains shown, one-arm format as m2) VH: QVQLVESGGGVVQPGRSLRLSCAASGFTFSNAWMHWVRQAPGKGLEWVAQIKAKSNNYATYYAESVKGRFTISRDDSKNSLYLQMNSLKTEDTAVYYCRYVHYGAYYGVDAWGQGTTVTVSS VL: DIVMTQSPLSLPVTPGEPASISCRSSQSLVHSNRNTYLHWYQQKPGQAPQLLIYKVSNRFSGVPDRFSGSGSGTDFTLKISRVEAEDVGVYYCGQGTQVPYTFGQGTKLEIK | 0.86 |
| GLS3000 R45D (antibody, name in Kabat numbering, V domains shown, one-arm format as m2) VH: QVQLVESGGGVVQPGRSLRLSCAASGFTFSNAWMHWVRQAPGKGLEWVAQIKAKSNNYATYYAESVKGRFTISRDDSKNSLYLQMNSLKTEDTAVYYCRYVHYGAYYGVDAWGQGTTVTVSS VL: DIVMTQSPLSLPVTPGEPASISCRSSQSLVHSNRNTYLHWYQQKPGQAPDLLIYKVSNRFSGVPDRFSGSGSGTDFTLKISRVEAEDVGVYYCGQGTQVPYTFGQGTKLEIK | 0.77 |
| GLS3000 R29G (antibody, name in Kabat numbering, V domains shown, one-arm format as m2) VH: QVQLVESGGGVVQPGRSLRLSCAASGFTFSNAWMHWVRQAPGKGLEWVAQIKAKSNNYATYYAESVKGRFTISRDDSKNSLYLQMNSLKTEDTAVYYCRYVHYGAYYGVDAWGQGTTVTVSS VL: DIVMTQSPLSLPVTPGEPASISCRSSQSLVHSNGNTYLHWYQQKPGQAPRLLIYKVSNRFSGVPDRFSGSGSGTDFTLKISRVEAEDVGVYYCGQGTQVPYTFGQGTKLEIK | 0.67 |
